This note sets out measurements from patent publication US20260274955A1 (JANUX THERAPEUTICS, published 2026).

T1 sequence (VH, as listed by the source, chain 1 of 2): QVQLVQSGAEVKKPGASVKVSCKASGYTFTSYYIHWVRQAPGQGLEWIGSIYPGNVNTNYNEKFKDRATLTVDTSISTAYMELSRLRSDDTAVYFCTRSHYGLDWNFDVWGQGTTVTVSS
T1 sequence (VL, as listed by the source, chain 2 of 2): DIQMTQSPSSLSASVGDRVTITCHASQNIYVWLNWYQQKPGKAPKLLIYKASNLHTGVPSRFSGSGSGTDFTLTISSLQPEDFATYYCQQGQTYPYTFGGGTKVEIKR

The first test concerns the target T1, Anti-CD28 Fab (SEQ ID NOs: 202, 203).
T1 construct: biotinylated and captured on neutravidin coated plates in the phage ELISA
Kind of test: phage ELISA on captured biotinylated Fab.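 Note: wells preblocked with or without CD28 antigen, then clonal phage supernatant added briefly, washed, and bound phage read out by ELISA using HRP-linked anti-M13 antibody.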
Procedure: (§1) Clonal phage were harvested as crude supernatants and screened via standard ELISAs. […] Prior to the addition of clonal phage, wells were incubated with blocking buffer and CD28 antigen or blocking buffer alone. Without washing or aspirating, clonal phage supernatants were then added to the wells and incubated for a short time. Wells were then washed followed by detection of bound phage using a horse radish conjugated anti-M13 antibody.
For YCAGHSPEYMGKCM [Phage-209], the “Anti-CD28 Fab signal” value was found to be 2.09.
Regarding YCEGHSLEYIGKCL [Phage-186], the “Anti-CD28 Fab signal” value is 2.14.
Still for that read-out and setting: the figure for YCAGHLEIYMQKCL [Phage-211] is 2.09; for YCDGHQPEYMAKCL [Phage-187] it is 2.14; for YCSGHAPIYMAKCL [Phage-200] it is 2.1.
Take YCSGHAPEYMAKCL [Phage-287]: the “Anti-CD28 Fab signal” value is 1.94.
Turning to YCEGHLPQYIPKCL [Phage-193], the “Anti-CD28 Fab signal” value was 2.12.
For YCDGHAQEFMSKCL [Phage-218], the “Anti-CD28 Fab signal” value was found to be 2.07.
Same read-out and setting: the same measure for YCDGHVPQYMAKCL [Phage-203]: 2.1.
Consider YCAGHTQEYMSKCL [Phage-201], for which the “Anti-CD28 Fab signal” value was 2.1.
Consider YCAGHLPEYIDKCL [Phage-219], for which the “Anti-CD28 Fab signal” value worked out at 2.07.
Take YCAGHMPEYIDKCL [Phage-296]: the “Anti-CD28 Fab signal” value is 1.92.
In the case of YCAGHLPEYISKCL [Phage-188], the “Anti-CD28 Fab signal” value amounted to 2.14.
As to YCEGHAPEHMAKCL [Phage-214], the “Anti-CD28 Fab signal” value worked out at 2.08.
Turning to YCAGHLPLYMEKCL [Phage-191], the “Anti-CD28 Fab signal” value is 2.12.
For the molecule YCAGHLPQYMEKCM [Phage-206], the “Anti-CD28 Fab signal” value was 2.09.
As to YCDGHLGIYMWKCL [Phage-183], the “Anti-CD28 Fab signal” value is 2.14.
On the same count and under the same terms, the figure for YCDGHLGIYMTKCL [Phage-268] is 1.98.
Still for that read-out and setting: the same measure for YCDGHAEQYMEKCL [Phage-215]: 2.08; for YCEGHSAEYMAKCL [Phage-184]: 2.14.
On to YCDGHSSEYMWKCL [Phage-244], for which the “Anti-CD28 Fab signal” value stood at 2.03.
For YCEGHSAEYMNKCL [Phage-226], the “Anti-CD28 Fab signal” value turned out to be 2.06.
For YCDGHSAEYMSKCL [Phage-204], the “Anti-CD28 Fab signal” value worked out at 2.1.
For YCDGHSAEYMMKCL [Phage-192], the “Anti-CD28 Fab signal” value was 2.12.
The same measure, in the same setting: the same measure for YCEGHSAEYMWKCL [Phage-213]: 2.08.
On to YCEGHSMEYMAKCL [Phage-295], for which the “Anti-CD28 Fab signal” value is 1.92.
With YCDGHASEYMMKCL [Phage-237], the “Anti-CD28 Fab signal” value is 2.05.
With YCDGHASEYMWKCL [Phage-286], the “Anti-CD28 Fab signal” value turned out to be 1.94.
For YCSGHLPEYMSKCL [Phage-245], the “Anti-CD28 Fab signal” value amounted to 2.03.
Turning to YCEGHLPEYMSKCL [Phage-181], the “Anti-CD28 Fab signal” value is 2.15.
In the case of YCSGHLPEYMEKCL [Phage-210], the “Anti-CD28 Fab signal” value was determined as 2.09.
On the same count and under the same terms, the figure for YCEGHTAEYLQKCL [Phage-208] is 2.09.
YCEGHSDEYMLKCL [Phage-223]: the “Anti-CD28 Fab signal” value came out at 2.06.
As to YCEGHAPQYIQKCL [Phage-220], the “Anti-CD28 Fab signal” value is 2.07.
In the case of YCLGHAPQYIQKCL [Phage-243], the “Anti-CD28 Fab signal” value worked out at 2.04.
As to YCDGHLEEYMAKCL [Phage-198], the “Anti-CD28 Fab signal” value was found to be 2.11.
In the case of YCDGHLPVYMAKCL [Phage-195], the “Anti-CD28 Fab signal” value worked out at 2.11.
Take YCDGHLPAYMAKCL [Phage-222]: the “Anti-CD28 Fab signal” value stood at 2.06.
YCEGHSPEYMSHCF [Phage-216]: the “Anti-CD28 Fab signal” value worked out at 2.08.
The same measure, in the same setting: the figure for YCEGHSMQHMAKCL [Phage-217] is 2.07; for YCAGHLPEHIGKCL [Phage-207] it is 2.09; for YCQGHLPQYIAKCL [Phage-205] it is 2.09.
As for YCEGHSPQYMQKCL [Phage-202], the “Anti-CD28 Fab signal” value came to 2.1.
In the case of YCEGHSPQYMSKCL [Phage-241], the “Anti-CD28 Fab signal” value was 2.04.
On the same count and under the same terms, the same measure for YCDGHIPIYMSKCL [Phage-189]: 2.13; for YCDGHSPIYMSKCL [Phage-260]: 2; for YCDGHELRYMAKCL [Phage-221]: 2.07.
Same read-out and setting: the figure for YCMGHSEEYMQKCL [Phage-196] is 2.11.

The target is the same in another test. Nature of the test: phage ELISA on captured Fab, wells pre-incubated with CD28 antigen (competitor: CD28).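 Note: bound clonal phage detected with an HRP-linked anti-M13 antibody, compared against wells that received blocking buffer alone without CD28.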 In general terms: ELISA stands for enzyme-linked immunosorbent assay.
Procedure: as §1
Take YCAGHSPEYMGKCM [Phage-209]: the “Anti-CD28 Fab signal in the presence of CD28” value (shortened to “Anti-CD28 Fab signal … of CD28”) worked out at 0.06.
In the case of YCEGHSLEYIGKCL [Phage-186], the “Anti-CD28 Fab signal … of CD28” value is 0.06.
As to YCAGHLEIYMQKCL [Phage-211], the “Anti-CD28 Fab signal … of CD28” value was found to be 0.08.
With YCDGHQPEYMAKCL [Phage-187], the “Anti-CD28 Fab signal … of CD28” value came out at 0.07.
Take YCSGHAPIYMAKCL [Phage-200]: the “Anti-CD28 Fab signal … of CD28” value was 0.07.
Turning to YCSGHAPEYMAKCL [Phage-287], the “Anti-CD28 Fab signal … of CD28” value came to 0.06.
Still for that read-out and setting: the same measure for YCEGHLPQYIPKCL [Phage-193]: 0.07; for YCDGHAQEFMSKCL [Phage-218]: 0.12; for YCDGHVPQYMAKCL [Phage-203]: 0.07.
Still for that read-out and setting: the same measure for YCAGHTQEYMSKCL [Phage-201]: 0.05.
YCAGHLPEYIDKCL [Phage-219]: the “Anti-CD28 Fab signal … of CD28” value is 0.08.
For the molecule YCAGHMPEYIDKCL [Phage-296], the “Anti-CD28 Fab signal … of CD28” value is 0.06.
Still for that read-out and setting: the same measure for YCAGHLPEYISKCL [Phage-188]: 0.08; for YCEGHAPEHMAKCL [Phage-214]: 0.1; for YCAGHLPLYMEKCL [Phage-191]: 0.06.
Regarding YCAGHLPQYMEKCM [Phage-206], the “Anti-CD28 Fab signal … of CD28” value is 0.08.
In the case of YCDGHLGIYMWKCL [Phage-183], the “Anti-CD28 Fab signal … of CD28” value is 0.08.
Regarding YCDGHLGIYMTKCL [Phage-268], the “Anti-CD28 Fab signal … of CD28” value is 0.08.
For the molecule YCDGHAEQYMEKCL [Phage-215], the “Anti-CD28 Fab signal … of CD28” value was 0.07.
Regarding YCEGHSAEYMAKCL [Phage-184], the “Anti-CD28 Fab signal … of CD28” value was 0.06.
For the molecule YCDGHSSEYMWKCL [Phage-244], the “Anti-CD28 Fab signal … of CD28” value worked out at 0.06.
For the molecule YCEGHSAEYMNKCL [Phage-226], the “Anti-CD28 Fab signal … of CD28” value amounted to 0.07.
In the case of YCDGHSAEYMSKCL [Phage-204], the “Anti-CD28 Fab signal … of CD28” value was 0.06.
Consider YCDGHSAEYMMKCL [Phage-192], for which the “Anti-CD28 Fab signal … of CD28” value was 0.08.
In the case of YCEGHSAEYMWKCL [Phage-213], the “Anti-CD28 Fab signal … of CD28” value came out at 0.09.
Consider YCEGHSMEYMAKCL [Phage-295], for which the “Anti-CD28 Fab signal … of CD28” value was 0.07.
Same read-out and setting: the same measure for YCDGHASEYMMKCL [Phage-237]: 0.06; for YCDGHASEYMWKCL [Phage-286]: 0.06; for YCSGHLPEYMSKCL [Phage-245]: 0.09.
As to YCEGHLPEYMSKCL [Phage-181], the “Anti-CD28 Fab signal … of CD28” value came to 0.07.
Same read-out and setting: the figure for YCSGHLPEYMEKCL [Phage-210] is 0.09.
Take YCEGHTAEYLQKCL [Phage-208]: the “Anti-CD28 Fab signal … of CD28” value is 0.1.
As to YCEGHSDEYMLKCL [Phage-223], the “Anti-CD28 Fab signal … of CD28” value was 0.07.
Same read-out and setting: the same measure for YCEGHAPQYIQKCL [Phage-220]: 0.07; for YCLGHAPQYIQKCL [Phage-243]: 0.14; for YCDGHLEEYMAKCL [Phage-198]: 0.09.
With YCDGHLPVYMAKCL [Phage-195], the “Anti-CD28 Fab signal … of CD28” value turned out to be 0.09.
Turning to YCDGHLPAYMAKCL [Phage-222], the “Anti-CD28 Fab signal … of CD28” value stood at 0.12.
As to YCEGHSPEYMSHCF [Phage-216], the “Anti-CD28 Fab signal … of CD28” value is 0.09.
Take YCEGHSMQHMAKCL [Phage-217]: the “Anti-CD28 Fab signal … of CD28” value came out at 0.08.
Take YCAGHLPEHIGKCL [Phage-207]: the “Anti-CD28 Fab signal … of CD28” value stood at 0.07.
Take YCQGHLPQYIAKCL [Phage-205]: the “Anti-CD28 Fab signal … of CD28” value stood at 0.08.
On the same count and under the same terms, the same measure for YCEGHSPQYMQKCL [Phage-202]: 0.06; for YCEGHSPQYMSKCL [Phage-241]: 0.07.
On the same count and under the same terms, the figure for YCDGHIPIYMSKCL [Phage-189] is 0.08.
With YCDGHSPIYMSKCL [Phage-260], the “Anti-CD28 Fab signal … of CD28” value is 0.09.
On to YCDGHELRYMAKCL [Phage-221], for which the “Anti-CD28 Fab signal … of CD28” value was 0.07.
Regarding YCMGHSEEYMQKCL [Phage-196], the “Anti-CD28 Fab signal … of CD28” value came out at 0.07.
